One block for each binder: values may come before it.
What was measured:
[1] = target: T1, B4-GC (EphB4 globular domain + Cys-rich domain, C-terminal 6xHis) (human, UniProt P54760 16-326); assay: Ephrin B2-AP binding to B4 proteins immobilized on Ni resin or nitrocellulose membrane
T1 construct: Printed mature EphB4 part counts 311 residues, the text says 1-312; also called B4EC-GC
T1 sequence: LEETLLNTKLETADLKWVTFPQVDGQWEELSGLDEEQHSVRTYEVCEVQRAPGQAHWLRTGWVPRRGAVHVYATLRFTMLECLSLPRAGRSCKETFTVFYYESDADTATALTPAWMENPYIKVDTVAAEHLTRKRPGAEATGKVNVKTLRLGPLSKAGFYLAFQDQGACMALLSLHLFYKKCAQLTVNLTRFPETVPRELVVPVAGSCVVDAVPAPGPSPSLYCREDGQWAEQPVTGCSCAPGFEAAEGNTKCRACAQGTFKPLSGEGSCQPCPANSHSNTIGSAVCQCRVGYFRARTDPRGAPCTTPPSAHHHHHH
Procedure: (§1) To confirm ability of the purified recombinant proteins to bind Ephrin B2, they were tested in an in vitro binding assay. As expected, GC, GCF1 and GCF2, but not CF2 are binding the cognate ligand Ephrin B2 as confirmed by interaction between Ephrin B2—alkaline phosphatase (Ephrin B2-AP) fusion protein with the B4 proteins immobilized on Ni²⁺-resin or on nitrocellulose membrane (FIG. 17).
(§2) To test ligand binding properties of the proteins, 10 μl of Ni-NTA-Agarose (Qiagen) were incubated in microcentrifuge tubes with 10-500 ng sample of a B4-ECD protein diluted in 0.5 ml of binding buffer BB (20 mM Tris-HCl, 0.15 M NaCl, 0.1% bovine serum albumin, pH 8). After incubation for 30 min on shaking platform, Ni-NTA beads were washed twice with 1.4 ml of BB, followed by addition of B2-AP fusion protein at concentration of 50 nM. Binding was performed for 30 min on a shaking platform. Tubes were centrifuged and washed once with 1.4 ml of BB. Amount of precipitated AP was measured colorimetrically at 420 nm after application of p-nitrophenyl phosphate (PNPP) and incubation for 5-30 min.

[2] = target: T2, B4-GCF2 (recombinant soluble EphB4 extracellular domain: globular, Cys-rich and two FNIII domains, C-terminal … (human, UniProt P54760 16-537)); assay: as above
T2 construct: Expressed in HEK293T, glycosylated
T2 sequence: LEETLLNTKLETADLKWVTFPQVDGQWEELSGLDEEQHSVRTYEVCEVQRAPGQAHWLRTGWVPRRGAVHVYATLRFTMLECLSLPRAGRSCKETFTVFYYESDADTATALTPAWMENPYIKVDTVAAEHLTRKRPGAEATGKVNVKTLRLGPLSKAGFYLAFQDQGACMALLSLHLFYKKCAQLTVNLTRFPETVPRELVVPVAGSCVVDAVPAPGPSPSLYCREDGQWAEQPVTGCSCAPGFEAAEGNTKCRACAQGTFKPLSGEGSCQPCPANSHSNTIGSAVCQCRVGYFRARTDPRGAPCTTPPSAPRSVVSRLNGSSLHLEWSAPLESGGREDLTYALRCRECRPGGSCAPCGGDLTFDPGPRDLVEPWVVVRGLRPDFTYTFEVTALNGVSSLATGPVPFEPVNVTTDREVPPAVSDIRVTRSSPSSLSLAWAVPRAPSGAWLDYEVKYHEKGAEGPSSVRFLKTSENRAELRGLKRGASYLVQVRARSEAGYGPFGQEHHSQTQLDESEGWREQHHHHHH
Procedure: as §1, §2

[3] = target: T3, B4-CF2 (EphB4 extracellular domain with deleted globular domain: Cys-rich and two FNIII domains, V5 and 6xHis … (human, UniProt P54760 16-537)); assay: as above
T3 sequence: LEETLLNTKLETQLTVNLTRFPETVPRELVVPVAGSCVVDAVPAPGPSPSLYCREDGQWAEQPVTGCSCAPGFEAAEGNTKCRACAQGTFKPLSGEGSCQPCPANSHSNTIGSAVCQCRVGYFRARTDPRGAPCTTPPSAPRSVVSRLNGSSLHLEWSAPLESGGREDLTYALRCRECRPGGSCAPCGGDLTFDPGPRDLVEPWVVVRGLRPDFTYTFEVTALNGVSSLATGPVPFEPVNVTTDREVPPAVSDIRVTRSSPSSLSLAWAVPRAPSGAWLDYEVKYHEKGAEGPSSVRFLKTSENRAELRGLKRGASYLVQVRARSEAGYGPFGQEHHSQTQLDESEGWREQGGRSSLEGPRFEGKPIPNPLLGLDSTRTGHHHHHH
Procedure: as §1, §2

[4] = target: T4, B4EC-NT (soluble EphB4 extracellular domain without epitope or purification tags) (human, UniProt P54760 16-539); assay: B2EC-AP binding and competition assays on conditioned media of stable cell lines
T4 construct: extracellular domain; also called EphB4ECnt; B4ECv3NT
T4 sequence (looked up): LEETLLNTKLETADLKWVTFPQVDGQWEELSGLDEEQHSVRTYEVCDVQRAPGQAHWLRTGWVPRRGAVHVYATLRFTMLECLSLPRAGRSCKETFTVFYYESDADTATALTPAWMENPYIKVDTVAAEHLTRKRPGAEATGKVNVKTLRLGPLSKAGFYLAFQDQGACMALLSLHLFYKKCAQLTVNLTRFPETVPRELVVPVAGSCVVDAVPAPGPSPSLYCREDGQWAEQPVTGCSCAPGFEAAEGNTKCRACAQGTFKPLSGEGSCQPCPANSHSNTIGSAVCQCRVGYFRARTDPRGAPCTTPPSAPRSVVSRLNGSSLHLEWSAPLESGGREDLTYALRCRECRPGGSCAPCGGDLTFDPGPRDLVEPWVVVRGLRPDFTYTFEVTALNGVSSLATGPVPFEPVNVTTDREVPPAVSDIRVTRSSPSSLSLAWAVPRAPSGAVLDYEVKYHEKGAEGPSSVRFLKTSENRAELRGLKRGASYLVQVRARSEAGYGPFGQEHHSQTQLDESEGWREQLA

[5] = target: T5, B4ECv3-FC (EphB4 extracellular domain fused to human IgG1 Fc) (human, UniProt P54760 16-539); assay: biochemical assays: Protein A-agarose and nitrocellulose binding of B2EC-AP; inhibition assays (FIGS. 6-7)
T5 construct: extracellular domain; also called B4EC-FC; not shown: Fc portion of human IgG1 (pIG vector)
T5 sequence (looked up): T4 sequence (looked up)
Procedure: Protein A-agarose based assay. 10 μl of Protein A-agarose were incubated in Eppendorf tubes with 50 μl of indicated amount of B4EC-FC diluted in binding buffer BB (20 mM Tris-HCl, 0.15 M NaCl, 0.1% BSA pH 8). After incubation for 30 min on shaking platform, Protein AAagarose beads were washed twice with 1.4 ml of BB, followed by application of 50 μl of B2ECAP reagent at the final concentration of 50 nM. Binding was performed for 30 min on shaking platform, and then tubes were centrifuged and washed once with 1.4 ml of BB. Colorimetric reaction of precipitated AP was measured after application of PNPP (FIG. 6).
Nitrocellulose based assay. B4EC-FC was serially diluted in 20 mM Tris-HCl, 0.15 M NaCl, 50 μg/ml BSA, pH 8. 2 μl of each fraction were applied onto nitrocellulose strip and spots were dried out for 3 min. Nitrocellulose strip was blocked with 5% non-fat milk for 30 min, followed by incubation with 5 nM B2EC-AP reagent. After 45 min incubation for binding, nitrocellulose was washed twice with 20 mM Tris-HCl, 0.15 M NaCl, 50 μg/ml BSA, pH 8 and color was developed by application of alkaline phosphatase substrate Sigma Fast (Sigma).

[6] = target: T6, B4ECv3 (soluble EphB4 extracellular domain with C-terminal V5 epitope tag and 6xHis tag) (human, UniProt P54760 16-537); assay: biochemical assays: Ni-NTA bead binding of B2-AP; inhibition in solution and cell based
T6 construct: also called EphB4ECv3; GCF2 (v.3)
T6 sequence: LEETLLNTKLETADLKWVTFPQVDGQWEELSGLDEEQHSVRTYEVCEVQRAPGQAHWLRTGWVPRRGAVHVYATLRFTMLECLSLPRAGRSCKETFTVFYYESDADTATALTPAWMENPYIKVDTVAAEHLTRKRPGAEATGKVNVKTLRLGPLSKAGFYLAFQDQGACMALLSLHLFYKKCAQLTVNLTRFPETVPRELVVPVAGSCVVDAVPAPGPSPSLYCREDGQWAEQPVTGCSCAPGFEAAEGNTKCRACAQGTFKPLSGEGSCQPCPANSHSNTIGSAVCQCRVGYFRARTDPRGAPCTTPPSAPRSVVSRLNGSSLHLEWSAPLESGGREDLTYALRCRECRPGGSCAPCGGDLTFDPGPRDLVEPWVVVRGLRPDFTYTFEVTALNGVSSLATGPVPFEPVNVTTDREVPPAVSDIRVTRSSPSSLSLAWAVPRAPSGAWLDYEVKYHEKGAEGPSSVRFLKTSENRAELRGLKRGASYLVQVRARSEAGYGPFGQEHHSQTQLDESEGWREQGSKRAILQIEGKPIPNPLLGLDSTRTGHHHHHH
Procedure: 10 μl of Ni-NTA-Agarose were incubated in microcentrifuge tubes with 50 μl of indicated amount of B4ECv3 diluted in binding buffer BB (20 mM Tris-HCl, 0.15 M NaCl, 0.1% bovine serum albumin pH 8) After incubation for 30 min on shaking platform, Ni-NTA beads were washed twice with 1.4 ml of BB, followed by application of 50 μl of B2-AP in the final concentration of 50 nM. Binding was performed for 30 min on shaking platform, and then tubes were centrifuged and washed one time with 1.4 ml of BB. Amount of precipitated AP was measured colorimetrically after application of PNPP.
Inhibition in solution. Different amounts of B4ECv3 diluted in 50 μl of BB were pre-incubated with 50 μl of 5 nM B2EC-AP reagent (protein fusion of Ephrin B2 ectodomain with placental alkaline phosphatase). After incubation for 1 h, unbound B2EC-AP was precipitated with 5,000 HEK293 cells expressing membrane-associated full-length EphB4 for 20 min. Binding reaction was stopped by dilution with 1.2 ml of BB, followed by centrifugation for 10 min. Supernatants were discarded and alkaline phosphatase activities associated with collected cells were measured by adding para-nitrophenyl phosphate (PNPP) substrate.
Cell based inhibition. B4ECv3 was serially diluted in 20 mM Tris-HCl, 0.15 M NaCl, 0.1% BSA, pH 8 and mixed with 5,000 HEK293 cells expressing membrane-associated full-length Ephrin B2. […]

[7] = target: T7, Mouse EphB4/Fc (R&D Systems) (mouse, UniProt P54761 16-539, limits assumed); assay: immunofluorescence on frozen KS biopsy sections, 5 ug/ml EphB4/Fc
T7 construct: Bought reagent; also called EphB4/Fc fusion protein; not shown: Fc part, detected with anti-human Fc/IgG-FITC
T7 sequence (looked up): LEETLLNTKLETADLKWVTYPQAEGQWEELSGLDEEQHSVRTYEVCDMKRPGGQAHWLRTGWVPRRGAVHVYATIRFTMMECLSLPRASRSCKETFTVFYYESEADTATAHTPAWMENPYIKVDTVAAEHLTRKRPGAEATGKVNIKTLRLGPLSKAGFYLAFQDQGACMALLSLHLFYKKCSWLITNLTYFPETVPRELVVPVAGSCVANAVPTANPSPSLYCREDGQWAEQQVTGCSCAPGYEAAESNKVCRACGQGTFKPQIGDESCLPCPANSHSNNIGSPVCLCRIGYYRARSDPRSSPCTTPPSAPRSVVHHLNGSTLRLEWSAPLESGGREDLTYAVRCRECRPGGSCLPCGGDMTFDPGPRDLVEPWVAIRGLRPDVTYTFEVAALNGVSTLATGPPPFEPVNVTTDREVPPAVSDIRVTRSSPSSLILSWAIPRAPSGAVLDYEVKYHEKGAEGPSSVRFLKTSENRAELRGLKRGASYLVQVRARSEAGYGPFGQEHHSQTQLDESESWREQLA
Procedure: Immunofluorescence detection of EphrinB2 with EPHB4-Fc was done as follows. Frozen sections fixed in 4% paraformaldehyde and blocked with 20% FBS were incubated with 5 μg/ml EphB4/Fc (R&D Systems) for 1 h at RT. Sections were then incubated with 10 μg/ml rabbit anti-human IgG-FITC in PBS (Jackson ImmunoResearch Laboratories West Grove, Pa.) at RT for 1 hour. Nuclei were counterstained with DAPI and sections mounted as above. Human Fc (Jackson ImmunoResearch) was used as the negative control.

binding result [1]: binds
binding result [2]: binds
binding result [4]: binds
binding result [5]: binds
binding result [6]: binds
B1: Ephrin B2-alkaline phosphatase (Ephrin B2-AP) fusion protein: Ephrin B2 ectodomain fused with placental alkaline phosphatase (ligand, human, UniProt P52799 28-229, looked up)
chain: IVLEPIYWNSSNSKFLPGQGLVLYPQIGDKLDIICPKVDSKTVGQYEYYKVYMVDKDQADRCTIKKENTPLLNCAKPDQDIKFTIKFQEFSPNLWGLEFQKNKDYYIISTSNGSLEGLDNQEGGVCQTRAMKILMKVGQDASSAGSTRNKDPTRRPELEAGTNGRSSTTSPFVKPNPGSSTDGNSAGHSGNNILGSEVALFA
notes: extracellular domain; Secreted reagent; also called B2EC-AP; B2ECAP; not shown: placental alkaline phosphatase of vector pAPTag2 (GenHunter)
binding result [3]: no binding (tested: 50 nM B2-AP; 10-500 ng B4-ECD protein)

binding result [7]: binds
B2: ephrin B2 on tumor cells of human Kaposi's sarcoma biopsy sections (ligand, UniProt P52799 28-333, looked up)
chain: IVLEPIYWNSSNSKFLPGQGLVLYPQIGDKLDIICPKVDSKTVGQYEYYKVYMVDKDQADRCTIKKENTPLLNCAKPDQDIKFTIKFQEFSPNLWGLEFQKNKDYYIISTSNGSLEGLDNQEGGVCQTRAMKILMKVGQDASSAGSTRNKDPTRRPELEAGTNGRSSTTSPFVKPNPGSSTDGNSAGHSGNNILGSEVALFAGIASGCIIFIVIIITLVVLLLKYRRRHRKHSPQHTTTLSLSTLATPKRSGNNNGSEPSDIIIPLRTADSVFCPHYEKVSGDYGHPVYIVQEMPPQSPANIYYKV
notes: whole, on cells

From patent US20090155251A1 (published 2009)
